Experimental findings from patent EP4786496A1 (Nanjing Iaso Biotechnology Co., Ltd., dated 2026) are described below.

Experiment [1] concerns the target T1, His-tagged human CD3E&G (CDG-H52W6, Acro) (human, UniProt P07766 23-126; P09693 23-111).
T1 construct: Bought His-tagged heterodimer; also called CD3E&G heterodimer complex
In words: BLI (ForteBio Octet), His-tagged antigen on HIS1K sensor, antibody in solution. On the technique in general: In BLI a coated tip is dipped into the sample, and binding shifts an interference pattern.

Experiment [2] concerns the target T2, His-tagged human CD3E&D (CDD-H52W1, Acro) (human, UniProt P07766 23-126; P04234 22-105).
T2 construct: Bought His-tagged heterodimer; also called CD3E&D heterodimer complex
Described as above.

Experiment [3] concerns the target T3, BAFF-R on the surface of BAFF-R-positive cells (K562-BAFF-R, NALM6, RS4, MEC1, JEKO1) (human, UniProt Q96RJ3 1-184).
T3 sequence: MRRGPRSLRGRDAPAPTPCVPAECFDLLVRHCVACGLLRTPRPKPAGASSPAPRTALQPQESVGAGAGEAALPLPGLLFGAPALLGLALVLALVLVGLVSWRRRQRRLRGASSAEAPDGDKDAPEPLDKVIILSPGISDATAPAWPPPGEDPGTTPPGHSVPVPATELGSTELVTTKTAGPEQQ
The experiment in a line: cell-based or functional assay.

Experiment [4] has as its target T3, BAFF-R on the surface of …. The experiment in a line: cell-based or functional assay. This is another data set of the same source.
In experiment [5] the target is T3, BAFF-R on the surface of …. The experiment in a line: cell-based or functional assay. This is another data set of the same source.
Experiment [6] addresses T3, BAFF-R on the surface of …. The experiment in a line: cell-based or functional assay. This is another data set of the same source.
In experiment [7] the target is T3, BAFF-R on the surface of …. The experiment in a line: cell-based or functional assay. This is another data set of the same source.
Experiment [8] addresses T3, BAFF-R on the surface of …. The experiment in a line: cell-based or functional assay. This is another data set of the same source.
Experiment [9] has as its target T4, His-tagged human BAFF-R antigen (BAR-H52H3, Acro) (human, UniProt Q96RJ3 7-71, limits assumed).
T4 construct: Bought protein used in BLI; not shown: His tag
T4 sequence: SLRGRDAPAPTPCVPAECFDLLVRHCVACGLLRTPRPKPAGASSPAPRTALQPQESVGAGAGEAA
In words: BLI (ForteBio Octet), His-tagged antigen on HIS1K sensor, antibody in solution.

T1 sequence (P07766 23-126, chain 1 of 2): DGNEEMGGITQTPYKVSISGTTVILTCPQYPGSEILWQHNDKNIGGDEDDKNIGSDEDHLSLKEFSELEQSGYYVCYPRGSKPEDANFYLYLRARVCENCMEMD
T1 sequence (P09693 23-111, chain 2 of 2): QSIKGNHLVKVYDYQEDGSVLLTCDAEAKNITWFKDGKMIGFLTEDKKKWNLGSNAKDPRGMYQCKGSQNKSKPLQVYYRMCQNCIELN
T2 sequence (P07766 23-126, chain 1 of 2): as the sequence (P07766 23-126, chain 1 of 2) above
T2 sequence (P04234 22-105, chain 2 of 2): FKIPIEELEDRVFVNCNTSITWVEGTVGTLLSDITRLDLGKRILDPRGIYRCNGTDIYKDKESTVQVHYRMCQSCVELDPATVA

B1: SP34 monoclonal antibody (anti-CD3) (antibody, human IgG4 S228P, lambda, V domains shown)
VH: EVQLVESGGGLVQPKGSLKLSCAASGFTFNTYAMNWVRQAPGKGLEWVARIRSKYNNYATYYADSVKDRFTISRDDSQSILYLQMNNLKTEDTAMYYCVRHGNFGNSYVSWFAYWGQGTLVTVSS
VL: QAVVTQESALTTSPGETVTLTCRSSTGAVTTSNYANWVQEKPDHLFTGLIGGTNKRAPGVPARFSGSLIGDKAALTITGAQTEDEAIYFCALWYSNLWVFGGGTKLTVLG
notes: also called α-CD3 monoclonal antibody
As a reminder, the Kd is a measure of binding affinity in units of concentration. A low value points to higher affinity. The term koff denotes the rate constant with which the complex falls apart. Read a high koff as a short-lived complex. For orientation: kon means the second-order rate constant of association. A lower kon goes with slower complex formation. In experiment [1], B1 yielded a Kd of 7.87 nM, a koff of 0.0029 s⁻¹ and a kon of 369000 M⁻¹ s⁻¹. Further, in experiment [2], the affinity, expressed as Kd, was 6.38 nM; the koff was found to be 0.00301 s⁻¹; the association rate constant (kon) was 473000 M⁻¹ s⁻¹.

B2: 0205-1, VH-Fab-Fc 1+1 α-BAFF-R VH×α-CD3 Fab bispecific antibody (bispecific antibody, human IgG4 S228P, lambda, F234A L235A)
heavy: EVQLVESGGGLVQPKGSLKLSCAASGFTFNTYAMNWVRQAPGKGLEWVARIRSKYNNYATYYADSVKDRFTISRDDSQSILYLQMNNLKTEDTAMYYCVRHGNFGNSYVSWFAYWGQGTLVTVSSASTKGPSVFPLAPCSRSTSESTAALGCLVKDYFPEPVTVSWNSGALTSGVHTFPAVLQSSGLYSLSSVVTVPSSSLGTKTYTCNVDHKPSNTKVDKRVESKYGPPCPPCPAPEAAGGPSVFLFPPKPKDTLMISRTPEVTCVVVDVSQEDPEVQFNWYVDGVEVHNAKTKPREEQFNSTYRVVSVLTVLHQDWLNGKEYKCKVSNKGLPSSIEKTISKAKGQPREPQVYTLPPCQEEMTKNQVSLWCLVKGFYPSDIAVEWESNGQPENNYKTTPPVLDSDGSFFLYSRLTVDKSRWQEGNVFSCSVMHEALHNHYTQKSLSLSLGK
light: QAVVTQESALTTSPGETVTLTCRSSTGAVTTSNYANWVQEKPDHLFTGLIGGTNKRAPGVPARFSGSLIGDKAALTITGAQTEDEAIYFCALWYSNLWVFGGGTKLTVLGQPKAAPSVTLFPPSSEELQANKATLVCLISDFYPGAVTVAWKADSSPVKAGVETTTPSKQSNNKYAASSYLSLTPEQWKSHKSYSCQVTHEGSTVEKTVAPTECS
chain: EVQLVESGGGVVQPGRSLRLTCAASGFTFSTSGMYWIRQAPGKGLEWVSYISSSSSTIYYADSVKGRFTISRDNSKNTLYLQMNSLRAEDTAVYYCVTQSCGAGKCYPGVWGQGTTVTVSSESKYGPPCPPCPAPEAAGGPSVFLFPPKPKDTLMISRTPEVTCVVVDVSQEDPEVQFNWYVDGVEVHNAKTKPREEQFNSTYRVVSVLTVLHQDWLNGKEYKCKVSNKGLPSSIEKTISKAKGQPREPQVCTLPPSQEEMTKNQVSLSCAVKGFYPSDIAVEWESNGQPENNYKTTPPVLDSDGSFFLVSRLTVDKSRWQEGNVFSCSVMHEALHNHYTQKSLSLSLGK
notes: IgG4 Fc with S228P/F234A/L235A, knobs on the CD3 side, holes on the BAFF-R side
Consider B2, for which, in experiment [3], the “killing of Jeko-1 cells by PBMC (Donor 605C), 24hr, top (%)” value is -12.6% and the “killing of Jeko-1 cells by PBMC (Donor 605C), 48hr, top (%)” value is -12.8%. In experiment [4], the “TDCC reporter gene cell activation by Jeko-1, EC50” value was determined as 11.7 nM and the “TDCC reporter gene cell activation by Jeko-1, top” value is 864. Moreover, in experiment [5], the “TDCC reporter gene cell activation by Mec-1, EC50” value stood at 7.31 nM and the “TDCC reporter gene cell activation by Mec-1, top” value is 793. For the same molecule, in [6], the “TDCC reporter gene cell activation by K562-BAFF-R, EC50” value worked out at 0.059 nM and the “TDCC reporter gene cell activation by K562-BAFF-R, top” value came out at 9430. Moreover, in [7], the “TDCC reporter gene cell activation by Nalm6, EC50” value was determined as 3.2 nM and the “TDCC reporter gene cell activation by Nalm6, top” value turned out to be 381. Moreover, in [8], the “killing of Jeko-1 cells by PBMC (Donor 301C), 24hr, top (%)” value was -22.3% and the “killing of Jeko-1 cells by PBMC (Donor 301C), 48hr, top (%)” value is -12.2%. In experiment [1], this molecule had a Kd of 6.68 nM, a koff of 0.0278 s⁻¹ and a kon of 4.16e+06 M⁻¹ s⁻¹. In [2], this molecule gave a Kd of 10.7 nM, a koff of 0.00811 s⁻¹ and a kon of 759000 M⁻¹ s⁻¹. In [9], this molecule showed a Kd of 1.78 nM, a koff of 0.00245 s⁻¹ and a kon of 1.38e+06 M⁻¹ s⁻¹.

B3: 0205-2, VH2-Fab-Fc 2+1 α-BAFF-R VH×α-CD3 Fab bispecific antibody (bispecific antibody)
heavy 1: EVQLVESGGGVVQPGRSLRLTCAASGFTFSTSGMYWIRQAPGKGLEWVSYISSSSSTIYYADSVKGRFTISRDNSKNTLYLQMNSLRAEDTAVYYCVTQSCGAGKCYPGVWGQGTTVTVSSGGGGSGGGGSEVQLVESGGGLVQPKGSLKLSCAASGFTFNTYAMNWVRQAPGKGLEWVARIRSKYNNYATYYADSVKDRFTISRDDSQSILYLQMNNLKTEDTAMYYCVRHGNFGNSYVSWFAYWGQGTLVTVSSASTKGPSVFPLAPCSRSTSESTAALGCLVKDYFPEPVTVSWNSGALTSGVHTFPAVLQSSGLYSLSSVVTVPSSSLGTKTYTCNVDHKPSNTKVDKRVESKYGPPCPPCPAPEAAGGPSVFLFPPKPKDTLMISRTPEVTCVVVDVSQEDPEVQFNWYVDGVEVHNAKTKPREEQFNSTYRVVSVLTVLHQDWLNGKEYKCKVSNKGLPSSIEKTISKAKGQPREPQVYTLPPCQEEMTKNQVSLWCLVKGFYPSDIAVEWESNGQPENNYKTTPPVLDSDGSFFLYSRLTVDKSRWQEGNVFSCSVMHEALHNHYTQKSLSLSLGK
light: QAVVTQESALTTSPGETVTLTCRSSTGAVTTSNYANWVQEKPDHLFTGLIGGTNKRAPGVPARFSGSLIGDKAALTITGAQTEDEAIYFCALWYSNLWVFGGGTKLTVLGQPKAAPSVTLFPPSSEELQANKATLVCLISDFYPGAVTVAWKADSSPVKAGVETTTPSKQSNNKYAASSYLSLTPEQWKSHKSYSCQVTHEGSTVEKTVAPTECS
heavy 2: EVQLVESGGGVVQPGRSLRLTCAASGFTFSTSGMYWIRQAPGKGLEWVSYISSSSSTIYYADSVKGRFTISRDNSKNTLYLQMNSLRAEDTAVYYCVTQSCGAGKCYPGVWGQGTTVTVSSESKYGPPCPPCPAPEAAGGPSVFLFPPKPKDTLMISRTPEVTCVVVDVSQEDPEVQFNWYVDGVEVHNAKTKPREEQFNSTYRVVSVLTVLHQDWLNGKEYKCKVSNKGLPSSIEKTISKAKGQPREPQVCTLPPSQEEMTKNQVSLSCAVKGFYPSDIAVEWESNGQPENNYKTTPPVLDSDGSFFLVSRLTVDKSRWQEGNVFSCSVMHEALHNHYTQKSLSLSLGK
notes: To be checked
As for B3, in experiment [3], the “killing of Jeko-1 cells by PBMC (Donor 605C), 24hr, EC50(pM)” value came to 13.1 pM; the “killing of Jeko-1 cells by PBMC (Donor 605C), 24hr, top (%)” value was 39%; the “killing of Jeko-1 cells by PBMC (Donor 605C), 48hr, EC50(pM)” value was found to be 3.58 pM; the “killing of Jeko-1 cells by PBMC (Donor 605C), 48hr, top (%)” value was determined as 101%. Besides, in [4], the “TDCC reporter gene cell activation by Jeko-1, EC50” value was 0.23 nM and the “TDCC reporter gene cell activation by Jeko-1, top” value was determined as 1650. For the same molecule, in experiment [5], the “TDCC reporter gene cell activation by Mec-1, EC50” value was 0.5 nM and the “TDCC reporter gene cell activation by Mec-1, top” value came out at 2930. Also, in experiment [6], the “TDCC reporter gene cell activation by K562-BAFF-R, EC50” value is 0.054 nM and the “TDCC reporter gene cell activation by K562-BAFF-R, top” value amounted to 12300. Moreover, in [7], the “TDCC reporter gene cell activation by Nalm6, EC50” value was determined as 0.068 nM and the “TDCC reporter gene cell activation by Nalm6, top” value came out at 2430. Further, in experiment [8], the “killing of Jeko-1 cells by PBMC (Donor 301C), 24hr, EC50(pM)” value was 52.8 pM; the “killing of Jeko-1 cells by PBMC (Donor 301C), 24hr, top (%)” value was determined as 57.8%; the “killing of Jeko-1 cells by PBMC (Donor 301C), 48hr, EC50(pM)” value was 9.74 pM; the “killing of Jeko-1 cells by PBMC (Donor 301C), 48hr, top (%)” value stood at 99.9%. In experiment [1], this molecule had a Kd of 11.1 nM, a koff of 0.00291 s⁻¹ and a kon of 262000 M⁻¹ s⁻¹. In [2], this molecule showed a Kd of 10.3 nM, a koff of 0.00314 s⁻¹ and a kon of 306000 M⁻¹ s⁻¹. In experiment [9], this molecule had a Kd of 1.12 nM, a koff of 0.000976 s⁻¹ and an association rate constant (kon) of 875000 M⁻¹ s⁻¹.
